What was measured:
[1] = target: V113A LukB CC8 LukAB (S. aureus); test: negative stain electron microscopy; 0.03 mg/ml protein in TBS + 40% v/v MPD, RT 45 min; uranyl formate stain; 2D class averages
[2] = target: V113A LukB CC8 LukAB (S. aureus); test: negative stain electron microscopy; 0.03 mg/ml protein in TBS + 20% v/v MPD, RT 45 min; uranyl formate stain; 2D class averages
[3] = target: WT CC8 LukAB (leukocidin A/leukocidin B) heterodimer (S. aureus); test: negative stain electron microscopy; 0.03 mg/ml protein in TBS + 40% v/v MPD, RT 45 min; uranyl formate stain; 2D class averages

## V113A LukB CC8 LukAB (complex)
[1]
  stoichiometry N: 8
[2]
  stoichiometry N: 8

## WT CC8 LukAB (leukocidin A/leukocidin B) heterodimer (complex)
[3]
  stoichiometry N: 8

Source: paper PMC10665946
